In the test the target is PilE2, major pilin of Streptococcus sanguinis 2908 type IV pili (mature, untagged) (Streptococcus sanguinis 2908). As to the kind of experiment: top-down mass spectrometry of purified filaments; purified Tfp from S. sanguinis WT, intact protein mass spectra on an LTQ Orbitrap; ratio of the two major proteoforms.

In the case of “PilE1, major pilin of Streptococcus sanguinis 2908 type IV pili (mature, untagged) (natural protein)”, the stoichiometry N (PilE1 per PilE2) was found to be 1.33.

Source of the values: PMC6497953.
